Paper PMC12207370, “Macrocyclic Peptide Probes for Immunomodulatory Protein CD59: Potent Modulators of Bacterial Toxin Activity and Antibody‐Dependent Cytotoxicity” (Angewandte Chemie (International Ed. in English), 2025)

Molecular target: T1, biotinylated CD59 (Homo sapiens, UniProt P13987)
T1 construct: Recombinant soluble human CD59 with an additional C-terminal cysteine residue
T1 sequence (P13987 26-102 limits assumed): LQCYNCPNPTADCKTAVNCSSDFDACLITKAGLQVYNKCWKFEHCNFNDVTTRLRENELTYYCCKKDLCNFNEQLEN
Experiment: mRNA-display cyclic peptide screen against CD59-biotin, NGS abundance after 6th selection round
Conditions: for Counts (raw counts for peptide sequence), Seq I: NGS sample Seq I; for Counts (raw counts for peptide sequence), Seq I / Counts (raw counts for peptide sequence), Seq II / Counts Seq I / Counts Seq II: sheet R6 (6th selection round); for Counts (raw counts for peptide sequence), Seq II: NGS sample Seq II; for Percentage of the pool, averaged across the two sequencing samples: average of Seq I and Seq II; for Percentage of the pool, averaged across the two sequencing samples / Percentage of the pool, Seq I / Percentage of the pool, Seq II / Percentage Seq I / Percentage Seq II / Percentage Average: sheet R6; for Percentage of the pool, Seq I: counts normalised by total counts of NGS sample Seq I; for Percentage of the pool, Seq II: counts normalised by total counts of NGS sample Seq II; for Percentage Seq I: counts normalised by total counts of sample Seq I; for Percentage Seq I / Percentage Seq II: percentage of the pool; for Percentage Seq II: counts normalised by total counts of sample Seq II; for Percentage Average: percentage of the pool averaged across the two sequencing samples; for Counts Seq I / Counts Seq II: raw NGS counts of peptide sequence; for Counts Seq I: sequencing sample Seq I; for Counts Seq II: sequencing sample Seq II
Excerpt: To discover novel non‐protein CD59 ligands, we screened a library of 10^12 cyclic peptides against CD59 using mRNA‐display (Figure 2a).^[ [23], [24], [25], [26], [27], [28], [29] ^] Briefly, an mRNA library was designed in which the start codon was reprogrammed from Met to N‐chloroacetyl‐D‐Tyr (ClAc‐D‐Tyr), followed by 10–12 randomly encoded natural amino acids, a Cys residue, a (GlySer)3 linker, and a stop codon. […] The total library diversity was 1.51 × 10^13 molecules, comprising 5.02 × 10^12 molecules of each macrocycle size, covering a subset of the maximum theoretical diversity of this library design. Following in vitro translation, ClAc‐D‐Tyr spontaneously reacts with either the C‐terminal Cys or a Cys in the random region, yielding macrocyclic thioether peptides. Hits from the library were identified through iterative enrichment and amplification against biotinylated CD59, then immobilized on streptavidin beads. Fifteen hit sequences (CP‐01 to CP‐15), enriched with abundance >1% relative to the total pool of recovered binders after the 6th round of selection, were synthesized by solid phase peptide synthesis (SPPS), without the (Gly‐Ser)3 linker.
Figure 2 Discovery of macrocyclic peptide ligands with nanomolar CD59 affinity using mRNA display. a) The selection process. PCR = polymerase chain reaction, SPPS = solid phase peptide synthesis. b) Table showing details of the peptides with nanomolar affinity for CD59 as well as the binding affinity of the lead inhibitor of CD59, rILYd4. K D values are presented as the average of three technical replicates ± SEM. Structures of all peptides and SPR sensograms are presented in Figures S1 and S2. *indicates the presented sequences are the variable regions of these cyclic peptides; each is flanked by an N‐terminal Ac‐D‐Tyr cyclized to a C‐terminal Cys. R6 abundance (%) is defined as (the given number of NGS reads for a given sequence/the total number of reads of unique sequences observed in NGS)*100 following the 6th selection round. c) Representative sensogram of the interaction between CP‐06 with immobilized CD59 by SPR analysis. Inset showing the equilibrium binding curve of CP‐06 to CD‐59. Below in the box are the association and dissociation rate constants of CP‐06. Concentrations are plotted in descending order from 800‐3.1 nM in line with their position on the legend. […] (nM)'; the box with Kon/Koff has no label of its own / ILYd4: the label may be cut off at the left edge (possibly 'rILYd4') / CP-02, KD: 15.3 ± 0.2, small print, 3 or 8 uncertain / CP-03, KD: 23.4 ± 0.7, small print / CP-06, KD: 11.3 ± 0.0, small print, 3 or 8 uncertain / CP-13, KD: 10.8 ± 0.7, small print, 8 or 6 uncertain / ILYd4, KD: 48.3 ± 1.1, small print, 8 and 3 uncertain
The mRNA-display cyclic peptide screen was performed against CD59-biotin by T.E.M: DNA templates for transcription were generated by PCR in a similar manner to that previously described.^2 RNA oligonucleotides were transcribed from the DNA templates using T7 RNA polymerase and purified by phenol/chloroform extraction followed by ethanol precipitation. Oligonucleotide concentrations were determined spectroscopically by absorbance at 260 nm. In the first selection round a 1:1:1 molar ratio of NNK10/NNK11/NNK12 was used. The procedure for selection rounds 2-6 is described below; round 1 was conducted at twice the scale.
RNA encoding for the peptide library ligated to a puromycin-modified oligonucleotide was […] (final [RNA] = 2.5 µM) using a customised PURE express kit (lacking release factor 1 and methionine, supplemented with […] initiator tRNA acylated with N-chloroacetyl-d-tyrosine prepared as previously described)^3 in a final volume of 5.6 µL for 1 hour at 37 °C.
This mixture was incubated at 42 °C for 1 hour before being diluted to 500 µL with PBS (10 mM Na-PO4 pH 7.4, 2.7 mM KCl, 137 mM NaCl) and 0.5 µL taken for subsequent use in qPCR. […]

Sequence	Counts (raw counts for peptide sequence), Seq I	Counts (raw counts for peptide sequence), Seq II	Percentage of the pool, averaged across the two sequencing samples	Percentage of the pool, Seq I	Percentage of the pool, Seq II	Percentage Seq I	Percentage Seq II	Percentage Average	Counts Seq I	Counts Seq II
CFSARAVLDGGW	59	3	0.010%	0.013%	0.007%	–	–	–	–	–
CFSARTDSSGT	–	–	–	–	–	0.053%	0.039%	0.046%	231	17
CFSHRNPTDSI	32	6	0.011%	0.007%	0.014%	–	–	–	–	–
CFSHRPGPSI	–	–	–	–	–	0.147%	0.132%	0.140%	642	57
CFSHRRLEYGV	–	–	–	–	–	0.045%	0.046%	0.046%	197	20
CFSHRSNSDGI	–	–	–	–	–	0.092%	0.081%	0.087%	404	35
CFSKRIAPGAQ	–	–	–	–	–	0.020%	0.019%	0.019%	88	8
CFSNRISGPAV	–	–	–	–	–	0.197%	0.214%	0.205%	864	92
CFSPRVTEHST	62	8	0.016%	0.014%	0.019%	–	–	–	–	–
CFSQRLDRTSS	–	–	–	–	–	0.027%	0.026%	0.026%	116	11
CFSRRLAAGAI	35	5	0.010%	0.008%	0.012%	–	–	–	–	–
CFSRRLTAGAI	–	–	–	–	–	2.075%	2.091%	2.083%	9078	901
CFSRRLTAGAS	–	–	–	–	–	0.024%	0.028%	0.026%	106	12
CFSRRLTAGAT	–	–	–	–	–	0.045%	0.035%	0.040%	195	15
CFSRRLTAGAV	–	–	–	–	–	0.031%	0.030%	0.030%	134	13
CFSRRLTEGAI	41	5	0.010%	0.009%	0.012%	–	–	–	–	–
CFSRRLTVGAI	40	6	0.012%	0.009%	0.014%	–	–	–	–	–

Sequence	Counts (raw counts for peptide sequence), Seq I	Counts (raw counts for peptide sequence), Seq II	Percentage of the pool, averaged across the two sequencing samples	Percentage of the pool, Seq I	Percentage of the pool, Seq II	Percentage Seq I	Percentage Seq II	Percentage Average	Counts Seq I	Counts Seq II
CFSRRSTSSQST	–	–	–	–	–	0.018%	0.019%	0.018%	77	8
CFSRRTSVPNTT	–	–	–	–	–	0.209%	0.190%	0.200%	914	82
CFSRRVTYPHQV	31	8	0.013%	0.007%	0.019%	–	–	–	–	–
CFSSRTGTTSV	39	10	0.016%	0.009%	0.023%	–	–	–	–	–
CFSSRTSLISGV	27	6	0.010%	0.006%	0.014%	–	–	–	–	–
CFSSRVQSGDT	–	–	–	–	–	0.214%	0.190%	0.202%	936	82
CFSTRLSRSYGT	–	–	–	–	–	0.016%	0.026%	0.021%	68	11
CFSWRLGPAEK	–	–	–	–	–	0.020%	0.028%	0.024%	87	12
CFSYRIRSAYDL	–	–	–	–	–	0.028%	0.030%	0.029%	124	13
CFTGRLSLDSI	–	–	–	–	–	0.031%	0.039%	0.035%	134	17
CFTGRLTIDAV	26	6	0.010%	0.006%	0.014%	–	–	–	–	–
CFTHRLTDFGT	–	–	–	–	–	0.053%	0.070%	0.061%	230	30
CFTLRLSQTSV	–	–	–	–	–	0.156%	0.160%	0.158%	682	69
CFTLRVLDVSAV	100	5	0.017%	0.023%	0.012%	–	–	–	–	–
CFTNRLDNSST	–	–	–	–	–	0.072%	0.067%	0.070%	314	29
CFTQRIASGSK	–	–	–	–	–	0.024%	0.021%	0.022%	105	9
CFTYRLSDEPSA	–	–	–	–	–	0.039%	0.016%	0.027%	169	7
